Results published in US20030158387A1.

Legend:
[1] = molecular target: chemokine receptor 1 (CCR1) (UniProt P56482); assay: competition radioligand binding, membranes of CHO-K1 cells expressing CCR1, tracer [125I]-MIP-1 alpha
[2] = molecular target: chemokine receptor 5 (CCR5) (human) (UniProt P51681)
[3] = molecular target: chemokine receptor 1 (CCR1) (UniProt P56482); assay: competition radioligand binding, membranes of CHO-K1 cells expressing CCR1, tracer [125I]-MIP-1 alpha; mean ± SEM
[4] = molecular target: chemokine receptor 5 (CCR5) (human) (UniProt P51681); assay: competition radioligand binding, membranes of CHO-K1 cells expressing CCR5, tracer [125I]-MIP-1 beta; mean ± SEM
[5] = molecular target: chemokine receptor 5 (CCR5) (human) (UniProt P51681); assay: competition radioligand binding, membranes of CHO-K1 cells expressing CCR5, tracer [125I]-MIP-1 beta
[6] = molecular target: chemokine receptor 5 (CCR5) (human) (UniProt P51681); remark: listed apart in the source
[7] = molecular target: chemokine receptor 1 (CCR1) (UniProt P56482); assay: cell-based or functional assay
[8] = molecular target: chemokine receptor 1 (CCR1) (UniProt P56482)
[9] = molecular target: chemokine receptor 1 (CCR1) (UniProt P56482); remark: listed apart in the source

RANTES, sequence (P13501 24-91): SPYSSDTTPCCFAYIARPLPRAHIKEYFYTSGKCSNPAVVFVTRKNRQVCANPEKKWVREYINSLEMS
chemokine receptor 5 (CCR5) (human), sequence (P51681 whole entry): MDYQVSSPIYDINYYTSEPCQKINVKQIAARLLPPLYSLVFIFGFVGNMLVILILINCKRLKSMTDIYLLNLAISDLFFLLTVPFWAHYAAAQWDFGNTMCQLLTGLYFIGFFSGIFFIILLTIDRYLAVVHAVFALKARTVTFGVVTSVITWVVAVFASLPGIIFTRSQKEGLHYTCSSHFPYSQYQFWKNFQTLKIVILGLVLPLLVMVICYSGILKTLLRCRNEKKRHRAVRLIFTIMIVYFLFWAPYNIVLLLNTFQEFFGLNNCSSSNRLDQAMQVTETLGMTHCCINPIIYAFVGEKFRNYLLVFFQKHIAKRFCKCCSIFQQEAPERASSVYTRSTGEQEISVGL

| IC50 (read off the curve) [1] | EC50 (read off the curve) [2] | IC50 [3] | IC50 [4] | IC50 (read off the curve) [5] | EC50 (aequorin luminescence, CHO-K1 cells expressing CCR5) [6] | EC50 of receptor activation (aequorin assay) [7] | EC50 (read off the curve) [8] | EC50 (aequorin luminescence, CHO-K1 cells expressing CCR1) [9] | Substance |
| --- | --- | --- | --- | --- | --- | --- | --- | --- | --- |
| 4 nM | 3 nM | 2.67 nM | 0.0968 nM | 0.06 nM | 1.94 nM |  |  |  | AOP-RANTES (ligand) |
| 4 nM |  | 5.42 nM | 0.776 nM | 0.1 nM | 1.45 nM |  |  |  | NNY-RANTES (ligand) |
| 0.3 nM |  |  |  |  |  | 6.3 nM | 10 nM | 8.03 nM | RANTES (from UniProt P13501 24-91) (ligand) |
